Assay results reported in patent US20240261333A1, “NOVEL TARGETS FOR ENHANCING ANTI-TUMOR IMMUNITY” (THE BROAD INSTITUTE, INC., priority 2021, published 2024).

Legend:
[1] = target: ABCD1 (human) (UniProt P33897); assay: IgG control IP from lysate of N-FLAG B3GNT2 cells, mass spectrometry
[2] = target: ACSL3 (human) (UniProt O95573); assay: as above
[3] = target: ELOC (human) (UniProt Q15369); assay: as above
[4] = target: IFI16 (human) (UniProt Q16666); assay: as above
[5] = target: IPO7 (human) (UniProt O95373); assay: as above
[6] = target: PSMC2 (human) (UniProt P35998); assay: as above
Sequence of PSMC2 (human) (P35998 2-433 limits assumed): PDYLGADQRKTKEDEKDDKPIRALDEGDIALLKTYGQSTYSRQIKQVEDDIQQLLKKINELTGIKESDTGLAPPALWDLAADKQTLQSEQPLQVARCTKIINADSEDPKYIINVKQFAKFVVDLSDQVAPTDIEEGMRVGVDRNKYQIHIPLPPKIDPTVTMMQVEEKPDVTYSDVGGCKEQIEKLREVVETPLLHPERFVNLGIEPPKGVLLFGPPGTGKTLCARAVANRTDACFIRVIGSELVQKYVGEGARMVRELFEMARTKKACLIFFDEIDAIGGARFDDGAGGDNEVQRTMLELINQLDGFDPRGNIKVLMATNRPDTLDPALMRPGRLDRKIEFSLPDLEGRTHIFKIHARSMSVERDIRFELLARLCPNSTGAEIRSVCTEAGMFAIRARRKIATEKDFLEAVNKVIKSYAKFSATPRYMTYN

[7] = target: RPL15 (human) (UniProt P61313); assay: as above
[8] = target: SLC25A22 (human) (UniProt Q9H936); assay: as above
Sequence of SLC25A22 (human) (Q9H936 whole entry): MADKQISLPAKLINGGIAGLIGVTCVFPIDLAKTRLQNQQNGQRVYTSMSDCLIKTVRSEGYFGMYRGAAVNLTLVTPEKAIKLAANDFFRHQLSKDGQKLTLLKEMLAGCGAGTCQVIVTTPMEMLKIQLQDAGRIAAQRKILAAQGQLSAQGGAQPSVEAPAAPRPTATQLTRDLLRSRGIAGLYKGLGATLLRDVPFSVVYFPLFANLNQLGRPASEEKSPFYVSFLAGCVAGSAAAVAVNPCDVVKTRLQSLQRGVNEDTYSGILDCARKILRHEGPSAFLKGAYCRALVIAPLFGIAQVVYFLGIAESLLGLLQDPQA

[9] = target: TUBA1C (human) (UniProt Q9BQE3); assay: as above
[10] = target: ZRANB2 (human) (UniProt O95218); assay: as above
[11] = target: CCT2 (human) (UniProt P78371); assay: co-IP with control IgG, mass spectrometry; lysate of cells with C-FLAG B3GNT2
[12] = target: DNAJB11 (human) (UniProt Q9UBS4); assay: as above
[13] = target: EIF4A1 (human) (UniProt P60842); assay: as above
Sequence of EIF4A1 (human) (P60842 2-406 limits assumed): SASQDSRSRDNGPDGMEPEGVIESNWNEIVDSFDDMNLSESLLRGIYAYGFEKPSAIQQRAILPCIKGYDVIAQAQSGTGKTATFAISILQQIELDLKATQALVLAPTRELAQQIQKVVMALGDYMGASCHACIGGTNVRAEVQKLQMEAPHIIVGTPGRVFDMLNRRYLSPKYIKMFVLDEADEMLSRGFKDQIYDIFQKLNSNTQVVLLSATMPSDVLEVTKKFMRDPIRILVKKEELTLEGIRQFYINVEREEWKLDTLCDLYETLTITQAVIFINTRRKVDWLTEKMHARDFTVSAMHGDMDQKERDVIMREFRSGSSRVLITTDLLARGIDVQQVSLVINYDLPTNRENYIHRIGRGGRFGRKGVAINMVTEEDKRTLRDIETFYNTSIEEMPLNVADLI

[14] = target: EPRS (human) (UniProt P07814); assay: as above
[15] = target: GALNT2 (human) (UniProt Q10471); assay: as above
[16] = target: GANAB (human) (UniProt Q14697); assay: as above
[17] = target: GAPDH (human) (UniProt P04406); assay: as above
[18] = target: HSPD1 (human) (UniProt P10809); assay: as above
[19] = target: ILF3 (human) (UniProt Q12906); assay: as above
[20] = target: IPO13 (human) (UniProt O94829); assay: as above
[21] = target: MAGT1 (human) (UniProt Q9H0U3); assay: as above
[22] = target: MARS (human) (UniProt P56192); assay: as above
[23] = target: MSN (human) (UniProt P26038); assay: as above
[24] = target: NPM1 (human) (UniProt P06748); assay: as above
[25] = target: PJA2 (human) (UniProt O43164); assay: as above
[26] = target: PSMD4 (human) (UniProt P55036); assay: as above
[27] = target: RARS (human) (UniProt P54136); assay: as above
[28] = target: RPL26 (human) (UniProt P61254); assay: as above
[29] = target: RPL9 (human) (UniProt P32969); assay: as above
[30] = target: RRP12 (human) (UniProt Q5JTH9); assay: as above
Sequence of RRP12 (human) (Q5JTH9 other isoform, or with tags, fused parts or gaps limits assumed): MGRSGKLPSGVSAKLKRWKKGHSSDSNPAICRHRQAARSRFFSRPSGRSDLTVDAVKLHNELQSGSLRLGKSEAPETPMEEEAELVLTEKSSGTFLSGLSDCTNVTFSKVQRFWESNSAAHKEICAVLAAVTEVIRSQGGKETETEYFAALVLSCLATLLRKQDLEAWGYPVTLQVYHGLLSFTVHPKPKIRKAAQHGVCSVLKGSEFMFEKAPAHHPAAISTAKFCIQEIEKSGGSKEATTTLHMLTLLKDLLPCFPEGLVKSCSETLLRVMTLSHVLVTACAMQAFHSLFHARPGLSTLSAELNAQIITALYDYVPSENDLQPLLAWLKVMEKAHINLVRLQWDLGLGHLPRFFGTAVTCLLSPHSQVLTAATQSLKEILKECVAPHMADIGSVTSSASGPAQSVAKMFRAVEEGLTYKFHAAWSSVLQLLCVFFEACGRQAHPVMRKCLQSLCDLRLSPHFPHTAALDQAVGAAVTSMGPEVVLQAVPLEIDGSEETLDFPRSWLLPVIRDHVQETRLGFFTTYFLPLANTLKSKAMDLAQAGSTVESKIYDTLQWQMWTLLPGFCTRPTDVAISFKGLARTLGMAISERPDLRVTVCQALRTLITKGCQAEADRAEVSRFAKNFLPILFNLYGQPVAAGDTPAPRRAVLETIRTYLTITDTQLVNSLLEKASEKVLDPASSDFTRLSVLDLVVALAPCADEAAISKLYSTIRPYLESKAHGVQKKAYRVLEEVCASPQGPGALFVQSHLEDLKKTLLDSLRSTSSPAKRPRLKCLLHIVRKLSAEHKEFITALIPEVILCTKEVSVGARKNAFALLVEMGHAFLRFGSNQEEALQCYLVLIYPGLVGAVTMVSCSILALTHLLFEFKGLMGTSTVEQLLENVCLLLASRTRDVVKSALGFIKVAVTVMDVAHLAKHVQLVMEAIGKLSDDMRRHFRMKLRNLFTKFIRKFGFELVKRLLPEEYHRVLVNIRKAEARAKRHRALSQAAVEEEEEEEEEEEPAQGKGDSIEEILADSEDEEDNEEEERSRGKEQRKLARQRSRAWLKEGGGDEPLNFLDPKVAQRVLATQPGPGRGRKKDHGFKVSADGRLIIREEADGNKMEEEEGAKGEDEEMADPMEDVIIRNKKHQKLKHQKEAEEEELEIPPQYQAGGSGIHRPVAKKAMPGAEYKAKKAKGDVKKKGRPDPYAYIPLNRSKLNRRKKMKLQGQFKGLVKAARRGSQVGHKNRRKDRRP

[31] = target: SDF4 (human) (UniProt Q9BRK5); assay: as above
Sequence of SDF4 (human) (Q9BRK5 37-362 limits assumed): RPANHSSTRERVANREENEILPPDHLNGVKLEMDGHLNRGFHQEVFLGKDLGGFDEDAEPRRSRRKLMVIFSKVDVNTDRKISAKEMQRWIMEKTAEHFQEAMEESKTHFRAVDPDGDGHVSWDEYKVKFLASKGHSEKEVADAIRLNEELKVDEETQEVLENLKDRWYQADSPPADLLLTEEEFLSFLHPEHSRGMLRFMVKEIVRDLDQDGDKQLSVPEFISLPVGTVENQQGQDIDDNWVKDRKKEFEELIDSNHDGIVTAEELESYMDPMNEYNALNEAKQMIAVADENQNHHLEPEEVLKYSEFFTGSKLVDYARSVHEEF

[32] = target: SEL1L (human) (UniProt Q9UBV2); assay: as above
[33] = target: SLC25A5 (human) (UniProt P05141); assay: as above
Sequence of SLC25A5 (human) (P05141 2-298 limits assumed): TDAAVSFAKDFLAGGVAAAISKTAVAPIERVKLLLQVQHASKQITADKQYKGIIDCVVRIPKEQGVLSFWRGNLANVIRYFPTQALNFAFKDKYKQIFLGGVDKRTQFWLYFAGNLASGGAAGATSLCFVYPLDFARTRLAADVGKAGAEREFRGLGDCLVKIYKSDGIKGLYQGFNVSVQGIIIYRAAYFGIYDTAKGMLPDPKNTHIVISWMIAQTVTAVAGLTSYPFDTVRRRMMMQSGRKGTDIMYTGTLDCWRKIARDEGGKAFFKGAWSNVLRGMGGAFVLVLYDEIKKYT

[34] = target: SLC27A4 (human) (UniProt Q6P1M0); assay: as above
Sequence of SLC27A4 (human) (Q6P1M0 whole entry): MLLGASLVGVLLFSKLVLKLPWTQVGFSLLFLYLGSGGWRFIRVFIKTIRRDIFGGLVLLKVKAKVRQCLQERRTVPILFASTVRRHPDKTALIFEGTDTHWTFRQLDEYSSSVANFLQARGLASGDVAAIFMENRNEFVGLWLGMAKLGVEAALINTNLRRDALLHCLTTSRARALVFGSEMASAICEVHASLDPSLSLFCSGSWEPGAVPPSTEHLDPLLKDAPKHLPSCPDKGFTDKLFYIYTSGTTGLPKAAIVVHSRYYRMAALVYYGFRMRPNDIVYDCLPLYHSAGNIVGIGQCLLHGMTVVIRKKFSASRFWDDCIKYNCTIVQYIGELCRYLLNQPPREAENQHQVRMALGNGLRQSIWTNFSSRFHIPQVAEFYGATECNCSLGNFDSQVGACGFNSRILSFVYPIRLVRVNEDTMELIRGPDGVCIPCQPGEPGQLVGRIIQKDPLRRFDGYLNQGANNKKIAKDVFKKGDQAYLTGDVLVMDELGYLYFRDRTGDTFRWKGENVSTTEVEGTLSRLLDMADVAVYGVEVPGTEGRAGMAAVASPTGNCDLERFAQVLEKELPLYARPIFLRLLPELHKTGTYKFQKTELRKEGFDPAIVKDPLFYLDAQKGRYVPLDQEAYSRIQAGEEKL

[35] = target: SPRR1A (human) (UniProt P35321); assay: as above
Sequence of SPRR1A (human) (P35321 whole entry): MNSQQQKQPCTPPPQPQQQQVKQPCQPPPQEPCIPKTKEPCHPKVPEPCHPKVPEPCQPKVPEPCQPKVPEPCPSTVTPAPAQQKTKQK

[36] = target: STAU2 (human) (UniProt Q9NUL3); assay: as above
Sequence of STAU2 (human) (Q9NUL3 whole entry): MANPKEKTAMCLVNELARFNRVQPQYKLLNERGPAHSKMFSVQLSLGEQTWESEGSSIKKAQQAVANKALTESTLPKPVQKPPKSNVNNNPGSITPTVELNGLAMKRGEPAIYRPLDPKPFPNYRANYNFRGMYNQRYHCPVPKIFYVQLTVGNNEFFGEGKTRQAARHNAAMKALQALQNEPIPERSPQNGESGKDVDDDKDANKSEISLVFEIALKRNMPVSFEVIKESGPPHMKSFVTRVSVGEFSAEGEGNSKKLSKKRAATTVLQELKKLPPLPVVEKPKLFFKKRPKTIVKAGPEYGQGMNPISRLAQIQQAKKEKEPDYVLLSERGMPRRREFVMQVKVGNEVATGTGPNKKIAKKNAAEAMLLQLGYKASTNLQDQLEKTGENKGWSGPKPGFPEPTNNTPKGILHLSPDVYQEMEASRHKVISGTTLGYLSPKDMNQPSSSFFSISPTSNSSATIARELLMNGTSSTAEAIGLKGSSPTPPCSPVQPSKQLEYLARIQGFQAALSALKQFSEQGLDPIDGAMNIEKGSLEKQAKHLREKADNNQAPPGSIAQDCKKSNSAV

[37] = target: TOR1AIP2 (human) (UniProt Q8NFQ8); assay: as above
Sequence of TOR1AIP2 (human) (Q8NFQ8 2-470 limits assumed): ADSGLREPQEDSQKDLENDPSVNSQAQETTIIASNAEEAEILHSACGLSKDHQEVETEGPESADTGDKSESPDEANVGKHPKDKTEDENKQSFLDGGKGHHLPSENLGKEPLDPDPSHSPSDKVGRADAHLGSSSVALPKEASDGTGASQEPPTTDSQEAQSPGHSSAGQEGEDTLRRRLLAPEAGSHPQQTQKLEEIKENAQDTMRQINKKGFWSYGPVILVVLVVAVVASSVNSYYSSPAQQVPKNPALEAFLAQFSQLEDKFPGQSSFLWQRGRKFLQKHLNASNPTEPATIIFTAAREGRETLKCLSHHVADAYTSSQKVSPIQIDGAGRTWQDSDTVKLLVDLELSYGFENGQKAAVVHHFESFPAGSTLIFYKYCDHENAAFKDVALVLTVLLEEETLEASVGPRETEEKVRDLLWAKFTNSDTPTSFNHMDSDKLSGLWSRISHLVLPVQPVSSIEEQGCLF

[38] = target: ZC3HAV1 (human) (UniProt Q7Z2W4); assay: as above

Sequence of ELOC (human) (Q15369 whole entry): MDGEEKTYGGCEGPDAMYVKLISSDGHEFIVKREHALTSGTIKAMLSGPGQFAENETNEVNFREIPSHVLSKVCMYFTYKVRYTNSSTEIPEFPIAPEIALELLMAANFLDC

Q: Which co-IP mass spectrometry count [1] does the source give for “IgG control (Millipore Sigma 12-371) (antibody)” here?
A: The co-IP mass spectrometry count was 0.

Q: And the co-IP mass spectrometry count [2]?
A: The co-IP mass spectrometry count was 0.

Q: And the co-IP mass spectrometry count [3]?
A: The co-IP mass spectrometry count was 0.

Q: And the co-IP mass spectrometry count [4]?
A: The co-IP mass spectrometry count was 0.

Q: And the co-IP mass spectrometry count [5]?
A: Its co-IP mass spectrometry count is 0.

Q: What about the co-IP mass spectrometry count [6] of the same substance?
A: Its co-IP mass spectrometry count is 0.

Q: What about the co-IP mass spectrometry count [7] of the same substance?
A: The co-IP mass spectrometry count was 0.

Q: And the co-IP mass spectrometry count [8]?
A: Its co-IP mass spectrometry count is 0.

Q: What about the co-IP mass spectrometry count [9] of the same substance?
A: Its co-IP mass spectrometry count is 8.

Q: And the co-IP mass spectrometry count [10]?
A: Its co-IP mass spectrometry count is 0.

Q: What about the co-IP mass spectrometry count [11] of the same substance?
A: Its co-IP mass spectrometry count is 0.

Q: And the co-IP mass spectrometry count [12]?
A: Its co-IP mass spectrometry count is 0.

Q: What about the co-IP mass spectrometry count [13] of the same substance?
A: Its co-IP mass spectrometry count is 0.

Q: What about the co-IP mass spectrometry count [14] of the same substance?
A: The co-IP mass spectrometry count was 0.

Q: What about the co-IP mass spectrometry count [15] of the same substance?
A: The co-IP mass spectrometry count was 0.

Q: And the co-IP mass spectrometry count [16]?
A: Its co-IP mass spectrometry count is 0.

Q: What about the co-IP mass spectrometry count [17] of the same substance?
A: Its co-IP mass spectrometry count is 6.

Q: And the co-IP mass spectrometry count [18]?
A: Its co-IP mass spectrometry count is 2.

Q: What about the co-IP mass spectrometry count [19] of the same substance?
A: Its co-IP mass spectrometry count is 0.

Q: And the co-IP mass spectrometry count [20]?
A: Its co-IP mass spectrometry count is 0.

Q: And the co-IP mass spectrometry count [21]?
A: Its co-IP mass spectrometry count is 0.

Q: And the co-IP mass spectrometry count [22]?
A: The co-IP mass spectrometry count was 0.

Q: And the co-IP mass spectrometry count [23]?
A: Its co-IP mass spectrometry count is 0.

Q: What about the co-IP mass spectrometry count [24] of the same substance?
A: Its co-IP mass spectrometry count is 0.

Q: What about the co-IP mass spectrometry count [25] of the same substance?
A: Its co-IP mass spectrometry count is 0.

Q: And the co-IP mass spectrometry count [26]?
A: Its co-IP mass spectrometry count is 0.

Q: And the co-IP mass spectrometry count [27]?
A: The co-IP mass spectrometry count was 0.

Q: What about the co-IP mass spectrometry count [28] of the same substance?
A: The co-IP mass spectrometry count was 4.

Q: And the co-IP mass spectrometry count [29]?
A: Its co-IP mass spectrometry count is 0.

Q: And the co-IP mass spectrometry count [30]?
A: Its co-IP mass spectrometry count is 0.

Q: And the co-IP mass spectrometry count [31]?
A: The co-IP mass spectrometry count was 0.

Q: And the co-IP mass spectrometry count [32]?
A: Its co-IP mass spectrometry count is 0.

Q: What about the co-IP mass spectrometry count [33] of the same substance?
A: The co-IP mass spectrometry count was 3.

Q: And the co-IP mass spectrometry count [34]?
A: The co-IP mass spectrometry count was 0.

Q: And the co-IP mass spectrometry count [35]?
A: The co-IP mass spectrometry count was 0.

Q: What about the co-IP mass spectrometry count [36] of the same substance?
A: The co-IP mass spectrometry count was 0.

Q: And the co-IP mass spectrometry count [37]?
A: The co-IP mass spectrometry count was 0.

Q: What about the co-IP mass spectrometry count [38] of the same substance?
A: The co-IP mass spectrometry count was 0.
